Assay results taken from doi:10.1101/2020.05.22.111005 (bioRxiv, 2020).

Molecular target: SARS-CoV-2 RBD fused to mouse Fc (RBD-mFc) (SARS-CoV-2, UniProt P0DTC2)
Experiment: BLI

Row | Binder | binding result
1 | COV2-2196 (human mAb) (antibody, V domains shown) VH: QMQLVQSGPEVKKPGTSVKVSCKASGFTFMSSAVQWVRQARGQRLEWIGWIVIGSGNTNYAQKFQERVTITRDMSTSTAYMELSSLRSEDTAVYYCAAPYCSSISCNDGFDIWGQGTMVTVSS VL: not shown | binds
2 | COV2-2165 (human mAb) (antibody, V domains shown) VH: EVQLVESGGGLVQPGGSLRLSCAASGLTVRSNYMTWVRQTPGKGLEWVSVIYSGGSTFYADSVKGRFTISRDNSKNTVYLQMNSLRAEDTAVYYCARDLVTYGLDVWGQGTTVTVSS VL: DIQLTQSPSFLSASVGDRVTITCRASQGISNYLAWYQQKPGTAPNLLIYAASTLQSGVPSRFSGSGSGTEFTLTISSLQPEDFATYYCQLLNSHPLTFGQGTRLEIK | binds
